Measured values as given in patent US20110268748A1 (UNIVERSITY OF ROCHESTER, published 2011).

T1: VP16-NuIP (HSV VP16 activation domain fused to full-length NuIP) (mouse, UniProt Q8BPQ7 1-1093)
T1 construct: also called pVP16NuIP
T1 sequence: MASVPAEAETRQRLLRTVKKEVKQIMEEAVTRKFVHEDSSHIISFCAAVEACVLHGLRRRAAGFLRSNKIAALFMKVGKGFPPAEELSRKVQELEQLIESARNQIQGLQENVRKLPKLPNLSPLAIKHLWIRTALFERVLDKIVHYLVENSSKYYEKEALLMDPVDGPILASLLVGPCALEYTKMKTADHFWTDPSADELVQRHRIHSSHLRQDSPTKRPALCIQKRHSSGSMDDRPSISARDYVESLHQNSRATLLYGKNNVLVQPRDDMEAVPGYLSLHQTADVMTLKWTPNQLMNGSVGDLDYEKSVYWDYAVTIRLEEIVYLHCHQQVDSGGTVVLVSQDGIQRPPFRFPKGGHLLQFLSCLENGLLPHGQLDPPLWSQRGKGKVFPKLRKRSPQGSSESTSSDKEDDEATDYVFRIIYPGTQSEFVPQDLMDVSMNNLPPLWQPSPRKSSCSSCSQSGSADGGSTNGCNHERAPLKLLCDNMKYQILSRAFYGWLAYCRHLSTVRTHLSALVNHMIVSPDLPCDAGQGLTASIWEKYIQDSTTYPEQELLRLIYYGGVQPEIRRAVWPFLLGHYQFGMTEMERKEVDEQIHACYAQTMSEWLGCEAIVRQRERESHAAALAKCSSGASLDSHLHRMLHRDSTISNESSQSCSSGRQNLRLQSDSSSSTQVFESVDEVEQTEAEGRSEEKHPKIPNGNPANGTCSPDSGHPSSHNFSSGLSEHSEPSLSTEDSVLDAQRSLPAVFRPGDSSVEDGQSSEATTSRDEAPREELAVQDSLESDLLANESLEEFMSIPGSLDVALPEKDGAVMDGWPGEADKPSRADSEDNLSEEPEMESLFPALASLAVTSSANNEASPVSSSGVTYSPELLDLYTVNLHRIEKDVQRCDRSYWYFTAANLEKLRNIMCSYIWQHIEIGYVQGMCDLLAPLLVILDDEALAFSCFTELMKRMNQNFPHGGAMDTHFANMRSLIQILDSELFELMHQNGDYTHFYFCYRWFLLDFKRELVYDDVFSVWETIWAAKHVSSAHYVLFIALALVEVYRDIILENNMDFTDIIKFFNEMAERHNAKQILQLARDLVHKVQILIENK

T2: pPC86-RXR (Gal4 activation domain fused to full-length human RXRα) (human, UniProt P19793 1-462)
T2 construct: also called pPC89RXR
T2 sequence (looked up): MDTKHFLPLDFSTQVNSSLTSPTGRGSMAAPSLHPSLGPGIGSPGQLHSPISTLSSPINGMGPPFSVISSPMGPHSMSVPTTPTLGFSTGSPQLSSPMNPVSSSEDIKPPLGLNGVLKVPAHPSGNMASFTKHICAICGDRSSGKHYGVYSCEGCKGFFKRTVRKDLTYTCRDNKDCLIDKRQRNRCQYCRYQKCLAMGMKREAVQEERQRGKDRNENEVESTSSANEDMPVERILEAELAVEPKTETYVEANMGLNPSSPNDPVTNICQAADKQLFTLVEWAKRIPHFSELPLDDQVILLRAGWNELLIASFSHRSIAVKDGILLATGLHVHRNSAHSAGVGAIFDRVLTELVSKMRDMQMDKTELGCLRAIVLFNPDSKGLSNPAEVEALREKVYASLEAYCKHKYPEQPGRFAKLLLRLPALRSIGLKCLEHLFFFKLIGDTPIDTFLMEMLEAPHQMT


Key:
[1] = target: T1, VP16-NuIP (HSV VP16 activation domain …); assay: mammalian two-hybrid, luciferase reporter, MN9D cells
[2] = target: T2, pPC86-RXR (Gal4 activation domain fused …); assay: yeast two-hybrid, growth on -Leu/-Trp/-His (X-gal staining: White)
[3] = target: T3, Gal4NLBD589A (Gal4 DNA-binding domain fused to the Nurr1 ligand binding domain with alanine for aspartic acid … (UniProt P04386 1-147)); assay: yeast two-hybrid, empty prey vector control, growth on -Leu/-Trp/-His (X-gal staining: White)
T3 construct: also called pPC97-NLBD589A; pPC97NLBD589A

| Binder | binding result [1] | binding result [2] | binding result [3] |
| --- | --- | --- | --- |
| Gal4NLBDΔ583 (Gal4 DNA-binding domain fused to the Nurr1 ligand binding domain with the AF2 domain deleted) (other, Used under the same name as yeast bait (pPC97) and in the mammalian two-hybrid assay in MN9D cells; also called Gal4NLDBA583; Gal4NLBDp583) DPSPPSPPVSLISALVRAHVDSNPAMTSLDYSRFQANPDYQMSGDDTQHIQQFYDLLTGSMEIIRGWAEKIPGFADLPKADQDLLFESAFLELFVLRLAYRSNPVEGKLIFCNGVVLHRLQCVRGFGEWIDSIVEFSSNLQNMNIDISAFSCIAALAMVTERHGLKEPKRVEELQNKIVNCLKDHVTFNNGGLNRPNYLSKLLGKLPELRTLCTQGLQRIFYLKLEDLVP | binds | no binding | – |
| Gal4 activation domain alone (empty pPC86 vector) (other, UniProt P04386 768-881, looked up, Empty prey vector control in yeast two-hybrid; also called pPC89) ANFNQSGNIADSSLSFTFTNSSNGPNLITTQTNSQALSQPIASSNVHDNFMNNEITASKIDDGNNSKPLSPGWTDQTAYNAFGITTGMFNTTTMDDVYNYLFDDEDTPPNPKKE | – | – | no binding |
